Measured values taken from patent publication US20130323786A1 (Biogen, published 2013).
Positions count from the first letter of the chain named. Names may count otherwise. Blank lines part the entries; values can stand above or below the binder they belong to.

Experiments:
[1] = biological target: T1, LINGO-Fc (human, UniProt Q96FE5 40-538, limits assumed); assay: direct ELISA on LINGO-Fc; OD450 at saturation relative to Li33;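 further: binding to plate-coated LINGO-Fc read by OD450, with the value at maximal saturation divided by the corresponding Li33 value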
T1 construct: not shown: Fc part
T1 sequence: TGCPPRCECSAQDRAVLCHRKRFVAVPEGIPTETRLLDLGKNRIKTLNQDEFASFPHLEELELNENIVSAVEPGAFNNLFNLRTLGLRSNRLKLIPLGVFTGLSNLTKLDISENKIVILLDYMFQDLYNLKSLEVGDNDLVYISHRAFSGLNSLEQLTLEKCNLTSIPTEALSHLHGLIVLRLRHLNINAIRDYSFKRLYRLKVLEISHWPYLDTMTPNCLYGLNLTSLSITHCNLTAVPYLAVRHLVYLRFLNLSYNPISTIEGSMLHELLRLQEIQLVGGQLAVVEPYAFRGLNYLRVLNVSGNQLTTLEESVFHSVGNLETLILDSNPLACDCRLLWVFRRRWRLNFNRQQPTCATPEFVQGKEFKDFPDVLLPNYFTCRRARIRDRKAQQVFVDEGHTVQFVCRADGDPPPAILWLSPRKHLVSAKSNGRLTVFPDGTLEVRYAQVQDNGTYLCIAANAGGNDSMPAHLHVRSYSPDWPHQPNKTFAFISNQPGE

[2] = biological target: T1, LINGO-Fc; assay: direct ELISA on LINGO-Fc; half-maximal concentration relative to Li33;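 further: direct binding ELISA on plates coated with LINGO-Fc, concentration giving half of saturating binding, expressed as a ratio to the same value for the comparator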
[3] = biological target: T2, human Fc receptor CD32a-GST fusion protein (human, UniProt P12318 34-217); assay: ALPHA competition vs biotinylated wild-type IgG1; receptor-GST
T2 construct: not shown: GST
T2 sequence (looked up): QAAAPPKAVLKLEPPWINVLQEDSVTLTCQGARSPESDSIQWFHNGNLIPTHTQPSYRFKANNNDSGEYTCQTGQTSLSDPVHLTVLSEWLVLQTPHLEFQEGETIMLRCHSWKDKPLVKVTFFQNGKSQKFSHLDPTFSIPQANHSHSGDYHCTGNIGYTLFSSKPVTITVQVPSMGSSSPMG

[4] = biological target: T3, human Fc receptor CD32b-GST fusion protein (human, UniProt P31994 43-217); assay: as above
T3 construct: not shown: GST
T3 sequence (looked up): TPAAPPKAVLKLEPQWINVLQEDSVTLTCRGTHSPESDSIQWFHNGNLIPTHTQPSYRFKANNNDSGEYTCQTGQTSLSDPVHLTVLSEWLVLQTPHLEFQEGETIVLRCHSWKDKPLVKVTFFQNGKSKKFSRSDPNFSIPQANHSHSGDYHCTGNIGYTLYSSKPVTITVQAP

[5] = biological target: T4, human Fc receptor CD16-GST fusion protein (human, UniProt P08637 17-208); assay: as above
T4 construct: not shown: GST

[6] = biological target: T2, human Fc receptor CD32a-GST fusion …; assay: ALPHA competition vs biotinylated wild-type IgG1; relative to wt
[7] = biological target: T3, human Fc receptor CD32b-GST fusion …; assay: as above
[8] = biological target: T5, human Fc receptor CD64-GST fusion protein (human, UniProt P12314 16-292, limits assumed); assay: as above
T5 construct: not shown: GST

[9] = biological target: T4, human Fc receptor CD16-GST fusion …; assay: as above

Plateau Ratio [1]: 0.85 ratio
ELISA Ratio [2]: 2.7 ratio
B1: Li33 variant W104S (SEQ ID NO:157) (antibody, V domains shown)
VH: EVQLLESGGGLVQPGGSLRLSCAASGFTFSIYPMFWVRQAPGKGLEWVSWIGPSGGITKYADSVKGRFTISRDNSKNTLYLQMNSLRAEDTATYYCAREGHNDSYFDLWGRGTLVTVSS
VL: DIQMTQSPGTLSLSPGERATLSCRASQSVSSYLAWYQQKPGQAPRLLIYDASNRATGIPARFSGSGSGTEFTLTISSLQSEDFAVYYCQQYDKWPLTFGGGTKVEIKR
notes: unchanged chain from WT Li33

Plateau Ratio [1]: 0.33 ratio
ELISA Ratio [2]: 3.5 ratio
B2: Li33 variant W104T (SEQ ID NO:178) (antibody, V domains shown)
VH: B1 VH with S104T
VL: B1 VL
notes: unchanged chain from WT Li33

Plateau Ratio [1]: 0.94 ratio
ELISA Ratio [2]: 2.8 ratio
B3: Li33 variant W104V (SEQ ID NO:155) (antibody, V domains shown)
VH: B1 VH with S104V
VL: B1 VL
notes: unchanged chain from WT Li33

IC50 [3]: 365 µg/mL
IC50 [4]: 350 µg/mL
IC50 [5]: 179 µg/mL
fold decrease from wt [6]: 60 fold
fold decrease from wt [7]: 15 fold
fold decrease from wt [8]: > 100 fold
fold decrease from wt [9]: 50 fold
B4: Li81 (agly) (antibody, human IgG1)
heavy: not shown
VL: DIQMTQSPATLSLSPGERATLSCRASQSVSSYLAWYQQKPGQAPRLLIYDASNRATGIPARFSGSGSGTDFTLTISSLEPEDFAVYYCQQRSNWPMYTFGQGTKLEIK
notes: Aglycosylated fully human IgG1 (single T to A change in the heavy chain); also called Li81 Ig1agly; Li81 Mab; copies: 2 + 2
